Consider 2 substances from patent US20140037642A1, “METHODS AND COMPOSITIONS RELATING TO INHIBITION OF IGF-1R” (AMGEN INC., priority 2011, published 2014).

Assay [1] has as its target hu IGF-1R(ECD)-C3-muIgG1Fc (human; mouse). Put plainly: ORIGEN competition with 1 nM Ru-IGF-1 for IGF-1R(ECD)-C3-muFc on beads.
The target is the same in assay [2]. Put plainly: ORIGEN competition with 2 nM Ru-IGF-2 for IGF-1R(ECD)-C3-muFc on beads.

The Ki is a dissociation constant, usually derived from enzyme kinetics or from competition with a known ligand. In the case of “murine anti-IGF-1R antibody 1H7 (Santa Cruz Biotechnology)”, in assay [1], the Ki came out at 16 nM and the Max (%), maximum level of inhibition at 1 µM antibody is 89%. In assay [2], this substance returned an inhibition constant (Ki) of 13.1 nM and a Max (%), maximum level of inhibition at 1 µM antibody of 99%.

In assay [1], “murine anti-IGF-1R antibody αIR3 (Calbiochem)” had a Ki of 5.3 nM and a Max (%), maximum level of inhibition at 1 µM antibody of 91%.
